From patent US20230048960A1 (University of Washington, published 2023) come the findings set out here.

Common to all, as to assay: cell-based or functional assay
Assay [1] has as its target T1, Aβ42 (UniProt P05067 672-713).
In assay [2] the target is T1, Aβ42. The source holds these as a separate data set.
In assay [3] the target is T2, islet amyloid polypeptide (IAPP) (UniProt P10997 34-70, limits assumed).
T2 peptide (looked up): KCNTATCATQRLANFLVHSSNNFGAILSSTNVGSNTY

Square brackets hold non-standard residues; d marks the D form.

T1 sequence (P05067 672-713 limits assumed): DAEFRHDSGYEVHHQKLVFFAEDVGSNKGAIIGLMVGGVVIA

Take Ac-[dR]G[dE]M[dN]L[dS]W[dM][dN][dE][dY][dY]G[dW]T[dM]N[dM]K[dC]G[dR]-NH2 (also: homodimer: D-Cys21 disulfide-bonded to D-Cys21 of other copy) [AP527d]: in the assay with Aβ42 [1], the “% inhibition of fibril formation (ThT), AP:Aβ42 1:1” value worked out at 100%; the “% inhibition of fibril formation (ThT), AP:Aβ42 1:10” value was determined as 96.2%; the “% inhibition of fibril formation (ThT), AP:Aβ42 1:100” value (from here on “% inhibition … AP:Aβ42 1:100”) was determined as 86.4%. In the assay with Aβ42 [2], the “% Inhibition 1:10 (AP peptide:Abeta42), ThT assay” value was 96%.

B1: AP090 (peptide)
peptide: Ac-RGE[dM]N[dL]S[dW]MNEYSGW[dT]M[dN]L[dK]MGR-NH2
SMILES: CSCC[C@H](NC(=O)[C@@H](CCCCN)NC(=O)[C@H](CC(C)C)NC(=O)[C@@H](CC(N)=O)NC(=O)[C@H](CCSC)NC(=O)[C@H](NC(=O)[C@H](Cc1c[nH]c2ccccc12)NC(=O)CNC(=O)[C@H](CO)NC(=O)[C@H](Cc1ccc(O)cc1)NC(=O)[C@H](CCC(=O)O)NC(=O)[C@H](CC(N)=O)NC(=O)[C@H](CCSC)NC(=O)[C@@H](Cc1c[nH]c2ccccc12)NC(=O)[C@H](CO)NC(=O)[C@@H](CC(C)C)NC(=O)[C@H](CC(N)=O)NC(=O)[C@@H](CCSC)NC(=O)[C@H](CCC(=O)O)NC(=O)CNC(=O)[C@H](CCCNC(=N)N)NC(C)=O)[C@H](C)O)C(=O)NCC(=O)N[C@@H](CCCNC(=N)N)C(N)=O
B1: in the assay with Aβ42 [1], the “% inhibition of fibril formation (ThT), AP:Aβ42 1:1” value came to 69.7% and the “% inhibition of fibril formation (ThT), AP:Aβ42 1:10” value came out at 0%. In addition, in assay [3], the “% inhibition of IAPP amyloid formation, Ratio AP:IAPP 1:1” value was 40%; the “% inhibition of IAPP amyloid formation, Ratio AP:IAPP 4:1” value stood at 42%; the “% inhibition of IAPP amyloid formation, Ratio AP:IAPP 10:1” value was 65%.

B2: AP525m (peptide)
peptide: Ac-RGE[dM]N[dL]S[dW]M[dN][dE][dY][dY]GW[dT]M[dN]M[dK]CGR-NH2
SMILES: CSCC[C@H](NC(=O)[C@@H](CC(N)=O)NC(=O)[C@H](CCSC)NC(=O)[C@H](NC(=O)[C@H](Cc1c[nH]c2ccccc12)NC(=O)CNC(=O)[C@@H](Cc1ccc(O)cc1)NC(=O)[C@@H](Cc1ccc(O)cc1)NC(=O)[C@@H](CCC(=O)O)NC(=O)[C@@H](CC(N)=O)NC(=O)[C@H](CCSC)NC(=O)[C@@H](Cc1c[nH]c2ccccc12)NC(=O)[C@H](CO)NC(=O)[C@@H](CC(C)C)NC(=O)[C@H](CC(N)=O)NC(=O)[C@@H](CCSC)NC(=O)[C@H](CCC(=O)O)NC(=O)CNC(=O)[C@H](CCCNC(=N)N)NC(C)=O)[C@H](C)O)C(=O)N[C@H](CCCCN)C(=O)N[C@@H](CS)C(=O)NCC(=O)N[C@@H](CCCNC(=N)N)C(N)=O
Take B2: in the assay with Aβ42 [1], the “% inhibition of fibril formation (ThT), AP:Aβ42 1:1” value is 53.5%; the “% inhibition of fibril formation (ThT), AP:Aβ42 1:10” value was 12.1%; the “% inhibition … AP:Aβ42 1:100” value was found to be 0%.

Ac-RGE[dM]N[dL]S[dW]M[dN][dE][dY][dY]GW[dT]M[dN]M[dK]CGR-NH2 (also: homodimer: Cys21 disulfide-bonded to Cys21 of other copy) [AP525d]: in the assay with Aβ42 [1], the “% inhibition of fibril formation (ThT), AP:Aβ42 1:1” value turned out to be 99.7%; the “% inhibition of fibril formation (ThT), AP:Aβ42 1:10” value is 98.3%; the “% inhibition … AP:Aβ42 1:100” value came to 89.2%.

B3: AP527d (MalPEG1) (peptide)
peptide: Ac-[dR]G[dE]M[dN]L[dS]W[dM][dN][dE][dY][dY]G[dW]T[dM]N[dM]K[dC]G[dR]-NH2
modifications: also: homodimer linked by MalPEG1, linker at 21 via MalPEG1, other end not in the chain
B3: the “% Inhibition 1:10 (AP peptide:Abeta42), ThT assay” value with Aβ42 [2] amounted to 75%.

Ac-RCE[dM]N[dL]S[dW]M[dN][dE][dY][dY]GW[dT]M[dN]M[dK]MGR-NH2 (also: disulfide-linked homodimer via Cys2) [AP524d]: in the assay with Aβ42 [1], the “% inhibition of fibril formation (ThT), AP:Aβ42 1:1” value amounted to 100%; the “% inhibition of fibril formation (ThT), AP:Aβ42 1:10” value is 86.1%; the “% inhibition … AP:Aβ42 1:100” value was found to be 43.1%.

B4: AP526m (peptide)
peptide: Ac-[dR]G[dE]M[dN]L[dS]W[dM][dN][dE][dY][dS]G[dW]T[dM]N[dC]K[dM]G[dR]-NH2
SMILES: CSCC[C@H](NC(=O)[C@@H](CCC(=O)O)NC(=O)CNC(=O)[C@@H](CCCNC(=N)N)NC(C)=O)C(=O)N[C@H](CC(N)=O)C(=O)N[C@@H](CC(C)C)C(=O)N[C@H](CO)C(=O)N[C@@H](Cc1c[nH]c2ccccc12)C(=O)N[C@H](CCSC)C(=O)N[C@H](CC(N)=O)C(=O)N[C@H](CCC(=O)O)C(=O)N[C@H](Cc1ccc(O)cc1)C(=O)N[C@H](CO)C(=O)NCC(=O)N[C@H](Cc1c[nH]c2ccccc12)C(=O)N[C@H](C(=O)N[C@H](CCSC)C(=O)N[C@@H](CC(N)=O)C(=O)N[C@H](CS)C(=O)N[C@@H](CCCCN)C(=O)N[C@H](CCSC)C(=O)NCC(=O)N[C@H](CCCNC(=N)N)C(N)=O)[C@@H](C)O
Take B4: in the assay with Aβ42 [1], the “% inhibition of fibril formation (ThT), AP:Aβ42 1:1” value turned out to be 63.2%; the “% inhibition of fibril formation (ThT), AP:Aβ42 1:10” value came out at 12.4%; the “% inhibition … AP:Aβ42 1:100” value is 0%.

B5: AP527d (BMOE) (peptide)
peptide: Ac-[dR]G[dE]M[dN]L[dS]W[dM][dN][dE][dY][dY]G[dW]T[dM]N[dM]K[dC]G[dR]-NH2
modifications: also: homodimer linked by BMOE, linker at 21 via BMOE, other end not in the chain
Turning to B5, the “% Inhibition 1:10 (AP peptide:Abeta42), ThT assay” value with Aβ42 [2] came out at 80%.

B6: AP527m (peptide)
peptide: Ac-[dR]G[dE]M[dN]L[dS]W[dM][dN][dE][dY][dY]G[dW]T[dM]N[dM]K[dC]G[dR]-NH2
SMILES: CSCC[C@H](NC(=O)[C@@H](CCC(=O)O)NC(=O)CNC(=O)[C@@H](CCCNC(=N)N)NC(C)=O)C(=O)N[C@H](CC(N)=O)C(=O)N[C@@H](CC(C)C)C(=O)N[C@H](CO)C(=O)N[C@@H](Cc1c[nH]c2ccccc12)C(=O)N[C@H](CCSC)C(=O)N[C@H](CC(N)=O)C(=O)N[C@H](CCC(=O)O)C(=O)N[C@H](Cc1ccc(O)cc1)C(=O)N[C@H](Cc1ccc(O)cc1)C(=O)NCC(=O)N[C@H](Cc1c[nH]c2ccccc12)C(=O)N[C@H](C(=O)N[C@H](CCSC)C(=O)N[C@@H](CC(N)=O)C(=O)N[C@H](CCSC)C(=O)N[C@@H](CCCCN)C(=O)N[C@H](CS)C(=O)NCC(=O)N[C@H](CCCNC(=N)N)C(N)=O)[C@@H](C)O
In the case of B6, in the assay with Aβ42 [1], the “% inhibition of fibril formation (ThT), AP:Aβ42 1:1” value was 54.2%; the “% inhibition of fibril formation (ThT), AP:Aβ42 1:10” value stood at 14.3%; the “% inhibition … AP:Aβ42 1:100” value was found to be 0%. The “% Inhibition 1:10 (AP peptide:Abeta42), ThT assay” value in the assay with Aβ42 [2] is 14%.
